The source of these data is patent US20090142377A1.

The target in this experiment is dH5-II (cdH5-0 heat-cycled at pH 2, back to pH 7) (influenza A virus H5N1 strain A/Vietnam/1203/04), Q8QPL1. The experiment in a line: ELISA, coated H5 form, tPA series with excess e-amino caproic acid. The note with it: remark: other sources report otherwise. A general note: ELISA stands for enzyme-linked immunosorbent assay.

A word on the Kd: it is the constant that tells how readily two partners part at equilibrium.

B1: tissue type plasminogen activator (tPA; Actilyse, Boehringer-Ingelheim), P00750 36-562 (enzyme)
chain: SYQVICRDEKTQMIYQQHQSWLRPVLRSNRVEYCWCNSGRAQCHSVPVKSCSEPRCFNGGTCQQALYFSDFVCQCPEGFAGKCCEIDTRATCYEDQGISYRGTWSTAESGAECTNWNSSALAQKPYSGRRPDAIRLGLGNHNYCRNPDRDSKPWCYVFKAGKYSSEFCSTPACSEGNSDCYFGNGSAYRGTHSLTESGASCLPWNSMILIGKVYTAQNPSAQALGLGKHNYCRNPDGDAKPWCHVLKNRRLTWEYCDVPSCSTCGLRQYSQPQFRIKGGLFADIASHPWQAAIFAKHRRSPGERFLCGGILISSCWILSAAHCFQERFPPHHLTVILGRTYRVVPGEEEQKFEVEKYIVHKEFDDDTYDNDIALLQLKSDSSRCAQESSVVRTVCLPPADLQLPDWTECELSGYGKHEALSPFYSERLKEAHVRLYPSSRCTSQHLLNRTVTDNMLCAGDTRSGGPQANLHDACQGDSGGPLVCLNDGRMTLVGIISWGLGCGQKDVPGVYTKVTNYLDWIRDNMRP
B1 yielded a Bmax of 0.07 and a Kd of 19 nM.
